Source: patent US20180118841A1 (published 2018)

T1: CTLA-4 (BMS, Orencia) (human)
T1 chain: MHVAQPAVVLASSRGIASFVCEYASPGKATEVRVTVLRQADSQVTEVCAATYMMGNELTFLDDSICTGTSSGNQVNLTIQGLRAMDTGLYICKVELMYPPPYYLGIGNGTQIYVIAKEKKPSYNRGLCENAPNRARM

B1: anti-CD137 antibody 1204/1205 (antibody, IgG1, V domains shown)
VH: EVQLLESGGGLVQPGGSLRLSCAASGFTFSSYYMGWVRQAPGKGLEWVSGIGSYYGYTGYADSVKGRFTISRDNSKNTLYLQMNSLRAEDTAVYYCARAYYDYNYYYAYFDYWGQGTLVTVSS
VL: DIQMTQSPSSLSASVGDRVTITCRASQSISSYLNWYQQKPGKAPKLLIYAASSLQSGVPSRFSGSGSGTDFTLTISSLQPEDFATYYCQQSVPHYPFTFGQGTKLEIK
notes: Produced as IgG; IgG1 format stated for the T cell assay
B2: bispecific OX40/CTLA-4 molecule 1526/1585 (bispecific antibody, human IgG1, kappa)
heavy: not shown
light: DIQMTQSPSSLSASVGDRVTITCRASQSISSYLNWYQQKPGKAPKLLIYAASSLQSGVPSRFSGSGSGTDFTLTISSLQPEDFATYYCQQYGSDSLLTFGQGTKLEIKRTVAAPSVFIFPPSDEQLKSGTASVVCLLNNFYPREAKVQWKVDNALQSGNSQESVTEQDSKDSTYSLSSTLTLSKADYEKHKVYACEVTHQGLSSPVTKSFNRGECSGGGGSGGGGSAPLKIQAYFNETADLPCQFANSQNLSLSELVVFWQDQENLVLNEVYLGKERFDSVDSKYMGRTSFDSDSWTLRLHNLQIKDKGRYQCIIHHKKPTGMINIHQMNSELSVLA

Legend:
[1] = biological target: CD137 on primary human CD8+ T cells (human, UniProt Q07011 24-255); experiment: cell-based or functional assay
[2] = biological target: T2, CD137 human/mouse chimera 1554 (human; mouse, UniProt P20334 96-159, limits assumed); experiment: FACS, 293-F transfectants; MFI/isotype, normalized to full-length CD137
T2 construct: domain: 3B, 4A and 4B; On 293-F cells; Human ranges derived from the printed mouse range; also called 1411

[3] = biological target: T1, CTLA-4 (BMS, Orencia); experiment: cell-based or functional assay

T2 sequence (P20334 other isoform, or with tags, fused parts or gaps mutant limits assumed): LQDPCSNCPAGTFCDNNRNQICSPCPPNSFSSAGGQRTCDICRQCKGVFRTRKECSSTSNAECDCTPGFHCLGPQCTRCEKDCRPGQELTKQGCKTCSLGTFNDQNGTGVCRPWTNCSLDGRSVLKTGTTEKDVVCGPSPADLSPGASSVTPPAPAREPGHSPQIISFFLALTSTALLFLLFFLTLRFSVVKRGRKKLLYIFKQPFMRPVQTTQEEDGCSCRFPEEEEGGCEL
CD137 on primary human CD8+ T cells, sequence (Q07011 24-255 limits assumed): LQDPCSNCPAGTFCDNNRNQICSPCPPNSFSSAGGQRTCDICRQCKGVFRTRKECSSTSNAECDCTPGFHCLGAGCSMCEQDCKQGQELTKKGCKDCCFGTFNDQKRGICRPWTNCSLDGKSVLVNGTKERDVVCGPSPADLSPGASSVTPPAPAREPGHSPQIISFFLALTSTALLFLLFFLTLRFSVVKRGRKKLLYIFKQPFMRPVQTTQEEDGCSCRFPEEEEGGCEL

Binder | Mean IFN-γ (pg/ml), CD8+ T cell assay [1] | relative binding [2] | Mean IL-2 level (pg/ml) induced at 1.5 nM [3]
B1 | 64400 pg/mL | 0.73 | 
B2 |  |  | 3200 pg/mL
